# US20180112001A1 (Regeneron, published 2018)
# Where a chain is given by its changes, count along the chain named. Numbers in names are those of the source. Where two headings read alike, the source gives them in different places.
# T1: soluble monomeric human MUC16, truncated format encompassing the last five SEA domains of Mucin-16 (human)
# T1 construct: also called hMUC16.mmh; MUC16 "nub"
# T1 chain: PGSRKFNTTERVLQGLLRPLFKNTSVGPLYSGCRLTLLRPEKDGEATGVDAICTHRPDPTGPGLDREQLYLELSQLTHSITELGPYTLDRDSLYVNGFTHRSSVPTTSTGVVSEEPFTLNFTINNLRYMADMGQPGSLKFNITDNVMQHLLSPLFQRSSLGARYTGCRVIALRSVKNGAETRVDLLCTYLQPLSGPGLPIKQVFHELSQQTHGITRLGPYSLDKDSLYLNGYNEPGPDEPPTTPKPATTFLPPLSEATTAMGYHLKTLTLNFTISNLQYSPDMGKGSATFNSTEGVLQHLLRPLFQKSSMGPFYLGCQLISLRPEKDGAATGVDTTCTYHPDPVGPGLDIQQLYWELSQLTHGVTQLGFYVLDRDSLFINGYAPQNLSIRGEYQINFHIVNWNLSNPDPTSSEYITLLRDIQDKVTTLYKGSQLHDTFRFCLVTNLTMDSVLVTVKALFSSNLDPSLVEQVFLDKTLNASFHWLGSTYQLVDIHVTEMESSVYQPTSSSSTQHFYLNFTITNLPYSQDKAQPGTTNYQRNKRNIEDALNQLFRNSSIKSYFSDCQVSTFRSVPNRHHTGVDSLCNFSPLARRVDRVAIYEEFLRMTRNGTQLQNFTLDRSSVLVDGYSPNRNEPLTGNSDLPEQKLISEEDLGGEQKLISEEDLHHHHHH
# T2: MUC16 "short" construct expressed on PC3 cells (PC3/MUC16 short) (human)
# T2 construct: Transfected into PC3/ATCC cells; part of SEA12, SEA13-SEA16, C-terminal non-SEA region, transmembrane region and cytoplasmic domain; also called "nub" portion of MUC16 without the repeat regions
# T2 chain: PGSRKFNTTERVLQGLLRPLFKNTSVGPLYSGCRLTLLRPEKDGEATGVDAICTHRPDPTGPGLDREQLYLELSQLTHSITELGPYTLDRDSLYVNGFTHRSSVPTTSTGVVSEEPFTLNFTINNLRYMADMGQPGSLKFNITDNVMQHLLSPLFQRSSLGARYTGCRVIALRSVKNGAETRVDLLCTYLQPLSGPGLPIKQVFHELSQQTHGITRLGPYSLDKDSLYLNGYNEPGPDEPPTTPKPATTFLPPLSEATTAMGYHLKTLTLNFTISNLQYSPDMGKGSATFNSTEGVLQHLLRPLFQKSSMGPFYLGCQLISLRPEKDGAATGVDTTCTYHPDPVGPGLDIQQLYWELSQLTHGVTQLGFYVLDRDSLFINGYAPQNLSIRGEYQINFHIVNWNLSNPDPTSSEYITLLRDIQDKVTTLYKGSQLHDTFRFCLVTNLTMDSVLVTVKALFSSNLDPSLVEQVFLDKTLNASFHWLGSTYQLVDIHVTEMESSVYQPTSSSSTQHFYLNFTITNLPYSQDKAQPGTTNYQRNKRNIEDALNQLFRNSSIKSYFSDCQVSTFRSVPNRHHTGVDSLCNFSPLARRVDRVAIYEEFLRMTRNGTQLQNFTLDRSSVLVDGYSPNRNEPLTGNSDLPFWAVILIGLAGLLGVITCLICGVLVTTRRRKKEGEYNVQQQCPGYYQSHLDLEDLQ
# B1: H2M7138N (antibody, mouse IgG2, V domains shown)
# VH: QVQLVQSGAEVKKPGASVKVSCKASGYTFTSSDINWVRQATGQGLEWVGWMNPNYGYTGSARKFQDRVTMTRNTSLSTAYLELHSLRSEDTAVYYCARVTYCSSVTSCFRPFTYWGQGTLVTVSA
# VL: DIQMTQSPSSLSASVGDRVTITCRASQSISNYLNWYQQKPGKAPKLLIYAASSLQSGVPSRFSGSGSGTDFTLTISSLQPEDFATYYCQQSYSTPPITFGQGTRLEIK
# notes: Mouse IgG2 constant region (H2M); also called H2aM7138N
# B2: H1H8808P (antibody, human IgG1, V domains shown)
# VH: QVQLVESGGGVVQPGRSLRLSCVASGFTFSNYGIHWVRQAPGKGLEWVAVISDDGSFKFYADSVKGRFTISRDNSKNTLYLQMNSLRVEDSAVYHCAKWQHNWNDGGFDYWGQGTLVTVSS
# VL: EIVLTQSPDTLSLSPGERATLSCRASQSLSSNYLAWYRQKPGQAPRLLIYGISSRATGIPDRFSGSGSGTDFTLTISRLEPEDFAVYYCQQYGSSPWTFGQGTKVEIK
# notes: Human IgG1 (H1H)
# B3: BSMUC16/CD3-005 (bispecific antibody, V domains shown)
# VH 1: QVQLVESGGGLVKPGGSLRLSCAASGFTFSNYYMSWVRQAPGKGLEWISYISGRGSTIFYADSVKGRITISRDNAKNSLFLQMNSLRAEDTAVYFCVKDRGGYSPYWGQGTLVTVSS
# VH 2: EVQLVESGGGLVQPGRSLRLSCAASGFTFDDYSMHWVRQAPGKGLEWVSGISWNSGSIGYADSVKGRFTISRDNAKNSLYLQMNSLRAEDTALYYCAKYGSGYGKFYYYGMDVWGQGTTVTVSS
# VL: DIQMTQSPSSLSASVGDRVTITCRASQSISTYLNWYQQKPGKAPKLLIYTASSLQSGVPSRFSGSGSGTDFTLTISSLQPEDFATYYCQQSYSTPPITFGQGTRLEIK
# notes: Anti-MUC16 VH (H1H8767P), anti-CD3 VH (CD3-VH-G20), common light chain; also called REGN4019; anti-MUC16xCD3 bispecific antibody with CD3-VH-G20 arm
# B4: H1H8767P (antibody, human IgG1, V domains shown)
# VH: B3 VH 1
# VL: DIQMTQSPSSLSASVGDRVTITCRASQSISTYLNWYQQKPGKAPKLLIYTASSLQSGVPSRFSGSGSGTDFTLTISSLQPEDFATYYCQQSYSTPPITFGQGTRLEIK
# notes: Human IgG1 (H1H)
# B5: CD3-VH-P (anti-CD3 antibody) (antibody, V domains shown)
# VH: B3 VH 2 with A23V, I58K, G59D, Y108H, M111L
# VL: DIQMTQSPSSLSASVGDSVTITCRASQSINNYLNWYQQKPGKAPKLLIYTASSLLSGVPSRFSGSGSGTDFTLTISGLHPEDFATYFCQQSFSTPPITFGQGTRLDIK
# B6: BSMUC16/CD3-001 (bispecific antibody, V domains shown)
# VH 1: B3 VH 1
# VH 2: B3 VH 2 with I58K, Y108H, M111L
# VL: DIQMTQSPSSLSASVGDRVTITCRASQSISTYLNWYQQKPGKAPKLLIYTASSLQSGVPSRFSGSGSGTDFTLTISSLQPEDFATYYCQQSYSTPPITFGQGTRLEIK
# notes: Anti-MUC16 VH (H1H8767P), anti-CD3 VH (CD3-VH-G), common light chain; also called anti-MUC16xCD3 bispecific antibody with CD3-VH-G arm
# B7: BSMUC16/CD3-002 (bispecific antibody, V domains shown)
# VH 1: B3 VH 1
# VH 2: B3 VH 2 with Y99D
# VL: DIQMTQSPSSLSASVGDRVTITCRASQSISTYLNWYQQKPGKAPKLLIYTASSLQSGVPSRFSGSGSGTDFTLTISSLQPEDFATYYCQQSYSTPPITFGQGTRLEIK
# notes: Anti-MUC16 VH (H1H8767P), anti-CD3 VH (CD3-VH-G5), common light chain; also called anti-MUC16xCD3 bispecific antibody with CD3-VH-G5 arm
# Legend:
# [1] = target: T1, soluble monomeric human MUC16, …; assay: SPR Biacore, antibody captured, soluble monomeric hMUC16.mmh injected, 25C
# [2] = target: T3, human MUC16 (mucin 16), endogenously expressed on cells (human); assay: MSD electrochemiluminescence cell binding; RLU ratio OVCAR-3/SK-OV-3; Ab 16.7 nM
# T3 construct: Endogenous MUC16 on OVCAR-3 / OVCAR3-Luc / PEO-1 / HPAC cells; also called hMUC16
# [3] = target: T2, MUC16 "short" construct expressed on …; assay: IHC on FFPE cell pellets, PC3/MUC16 Short cells
# [4] = target: T3, human MUC16 (mucin 16), endogenously …; assay: MSD electrochemiluminescence cell binding; RLU ratio OVCAR-3/SK-OV-3; Ab 1.9 nM
# [5] = target: T3, human MUC16 (mucin 16), endogenously …; assay: MSD electrochemiluminescence cell binding; RLU ratio OVCAR-3/SK-OV-3; Ab 16.7 nM; NS = Non-Specific, ratio <2.5-fold
# [6] = target: T1, soluble monomeric human MUC16, …; assay: SPR Biacore, antibody captured, soluble monomeric hMUC16.mmh injected, 25C
# [7] = target: T1, soluble monomeric human MUC16, …; assay: as above
# [8] = target: mouse CD3 (mouse, UniProt P22646 22-108); assay: not described (statement in the pharmacokinetic example)
# [9] = target: T3, human MUC16 (mucin 16), endogenously …; assay: cell-based or functional assay
# [10] = target: T3, human MUC16 (mucin 16), endogenously …; assay: FACS binding titration on PEO-1 (MUC16+) cells
# [11] = target: T4, cynomolgus monkey CD3 on cynomolgus T cells (cynomolgus monkey, UniProt Q95LI5 22-198); assay: FACS binding titration on cynomolgus T cells
# T4 construct: whole, on cells; also called cynomolgus CD3
# [12] = target: T3, human MUC16 (mucin 16), endogenously …; assay: cell-based or functional assay; remark: listed apart in the source
# [13] = target: T3, human MUC16 (mucin 16), endogenously …; assay: FACS binding titration on OVCAR3-Luc (MUC16+) cells
# [14] = target: T4, cynomolgus monkey CD3 on cynomolgus T …; assay: FACS titration of cynomolgus T cells
# [15] = target: T5, human CD3 on cells (Jurkat cells, human T cells) (human, UniProt P07766 23-207; P04234 22-171); assay: FACS titration of Jurkat cells
# T5 construct: on cells CD3 is part of the TCR complex; also called hCD3
# [16] = target: T5, human CD3 on cells (Jurkat cells, human …); assay: FACS binding titration on Jurkat cells
# [17] = target: T5, human CD3 on cells (Jurkat cells, human …); assay: cell-based or functional assay
# [18] = target: T3, human MUC16 (mucin 16), endogenously …; assay: FACS binding titration on OVCAR3 (MUC16+) cells
# [19] = target: T5, human CD3 on cells (Jurkat cells, human …); assay: FACS binding titration on Jurkat cells; remark: listed apart in the source
# [20] = target: T5, human CD3 on cells (Jurkat cells, human …); assay: cell-based or functional assay; remark: listed apart in the source
# [21] = target: T5, human CD3 on cells (Jurkat cells, human …); assay: cell-based or functional assay; remark: listed apart in the source
# [22] = target: T3, human MUC16 (mucin 16), endogenously …; assay: cell-based or functional assay; remark: listed apart in the source
# T5 sequence (P07766 23-207 limits assumed, chain 1 of 2): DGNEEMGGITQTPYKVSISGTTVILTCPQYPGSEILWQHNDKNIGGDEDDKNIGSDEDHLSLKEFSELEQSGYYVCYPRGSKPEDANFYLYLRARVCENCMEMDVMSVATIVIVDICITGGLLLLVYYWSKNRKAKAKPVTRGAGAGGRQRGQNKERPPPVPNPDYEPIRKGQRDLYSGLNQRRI
# T5 sequence (P04234 22-171 limits assumed, chain 2 of 2): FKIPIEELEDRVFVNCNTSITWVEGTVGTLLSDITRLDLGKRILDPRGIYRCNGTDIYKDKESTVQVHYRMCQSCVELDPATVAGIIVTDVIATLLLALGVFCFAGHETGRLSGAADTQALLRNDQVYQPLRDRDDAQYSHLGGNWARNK
# T4 sequence (Q95LI5 22-198): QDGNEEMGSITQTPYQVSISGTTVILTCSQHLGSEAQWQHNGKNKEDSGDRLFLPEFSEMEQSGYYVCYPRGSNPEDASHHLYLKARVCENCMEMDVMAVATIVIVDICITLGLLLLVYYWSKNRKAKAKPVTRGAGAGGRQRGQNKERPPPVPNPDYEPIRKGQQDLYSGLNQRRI
# Sequence of mouse CD3 (P22646 22-108): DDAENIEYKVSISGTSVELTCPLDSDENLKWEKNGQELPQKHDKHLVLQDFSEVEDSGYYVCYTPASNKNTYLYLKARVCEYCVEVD
binder,measurement,setting,value
B1,Kd,[1],1.25 nM
same,koff,[1],9.25e-05 s⁻¹
same,kon,[1],74100 M⁻¹ s⁻¹
same,t ½,[1],125 min
same,Ratio: anti-MUC16 Binding OVCAR-3/SK-OV-3,[2],50 ratio
same,binding result,[3],binds
same,Ratio: anti-MUC16 Binding OVCAR-3/SK-OV-3,[4],82 ratio
B2,Ratio: anti-MUC16 Binding OVCAR-3/SK-OV-3,[5],< 2.5 ratio
same,Kd,[6],52.4 nM
same,koff,[6],0.000216 s⁻¹
same,kon,[6],4120 M⁻¹ s⁻¹
same,t1/2,[6],54 min
same,Ratio: anti-MUC16 Binding OVCAR-3/SK-OV-3,[4],4 ratio
B3,Kd,[7],6 nM
same,koff,[7],0.000564 s⁻¹
same,kon,[7],94100 M⁻¹ s⁻¹
same,t ½,[7],21 min
same,binding result,[8],no binding
same,PEO-1 cell depletion EC50,[9],0.0774 nM
same,EC50,[10],2.63 nM
same,EC50,[11],1170 nM
same,OVCAR3-Luc cell depletion EC50,[12],0.0516 nM
same,EC50,[13],1.47 nM
B4,Ratio: anti-MUC16 Binding OVCAR-3/SK-OV-3,[5],< 2.5 ratio
same,Kd,[6],3.58 nM
same,koff,[6],0.000418 s⁻¹
same,kon,[6],117000 M⁻¹ s⁻¹
same,t1/2,[6],28 min
same,Ratio: anti-MUC16 Binding OVCAR-3/SK-OV-3,[4],4 ratio
B5,EC50,[14],1 to 40 nM
same,EC50,[15],1 to 40 nM
B6,Kd,[7],6.18 nM
same,koff,[7],0.000586 s⁻¹
same,kon,[7],94800 M⁻¹ s⁻¹
same,t ½,[7],20 min
same,binding result,[8],no binding
same,EC50,[16],3.21 nM
same,T cells activation (CD25 upregulation) EC50,[17],0.039 nM
same,T cells activation (CD69 upregulation) EC50,[17],0.00834 nM
same,PEO-1 cell depletion EC50,[9],0.0256 nM
same,EC50,[18],1.2 nM
same,EC50,[10],3.02 nM
same,EC50,[11],15.6 nM
same,EC50,[19],6.44 nM
same,T cells activation (CD25 upregulation) EC50,[20],0.0306 nM
same,T cells activation (CD69 upregulation) EC50,[20],0.00298 nM
same,OVCAR3-Luc cell depletion EC50,[12],0.0154 nM
same,T cell activation (CD69 upregulation) EC50,[21],0.00588 nM
same,OVCAR3 cell depletion EC50,[22],0.0224 nM
same,EC50,[13],1.32 nM
B7,T cells activation (CD25 upregulation) EC50,[17],0.0889 nM
same,T cells activation (CD69 upregulation) EC50,[17],0.0134 nM
same,PEO-1 cell depletion EC50,[9],0.0675 nM
same,EC50,[18],2.69 nM
same,EC50,[10],3.13 nM
same,binding result,[11],no binding (tested: serial dilution from 66.6 nM to 0.001 nM)
same,EC50,[19],301 nM
same,T cell activation (CD69 upregulation) EC50,[21],0.0101 nM
same,OVCAR3 cell depletion EC50,[22],0.0306 nM
